Measurements as given in patent US20200256849A1.

What was measured:
MART1 comPACT [1] = molecular target: MART1 comPACT (UniProt P61769); test: dual staining with tetramer, trimer+DNA, dextramer and dextramer+DNA, FACS
MART1 comPACT [2] = molecular target: MART1 comPACT (UniProt P61769); test: replicate of PE/APC comPACT tetramer dual staining, FACS
MART1 comPACT [3] = molecular target: MART1 comPACT (UniProt P61769); test: PE/APC comPACT tetramer dual staining, FACS

% of gene edited cells stained (MART1 comPACT [1]): > 98%
tetramer staining (% of T cells) (MART1 comPACT [2]): > 99%
tetramer staining (% of T cells) (MART1 comPACT [3]): > 99%
Substance: TCR against a MART1 antigen (F5)
